Laboratory results reported in the supplement of paper PMC9112550, “Optimization of the antimicrobial peptide Bac7 by deep mutational scanning” (BMC Biology, 2022).

tested on: Escherichia coli TOP10; test: shrunken log2 fold change of peptide-encoding DNA abundance (4.5 h post-induction vs induction); higher = less antimicrobial activity (less host growth inhibition); conditions: time post-induction: 4.5 h; library: site-saturation at positions 5, 18, 19, 20
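Further: peptides expressed intracellularly from a pBAD plasmid library in pooled LB shake-flask culture, induced with 0.3% L-arabinose, DNA abundance read by NGS, three biological replicates, DESeq2 with apeglm shrinkage.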

| Sequence | shrunken log2 fold change |
| --- | --- |
| RRIRGRPPRLPRPRPRPMYMPRP | -0.169 |
| RRIRGRPPRLPRPRPRPNCPPRP | -0.161 |
| RRIRGRPPRLPRPRPRPNEFPRP | 0.141 |
| RRIRGRPPRLPRPRPRPNELPRP | 0.552 |
| RRIRGRPPRLPRPRPRPNFLPRP | -0.0918 |
| RRIRGRPPRLPRPRPRPNFNPRP | 0.0556 |
| RRIRGRPPRLPRPRPRPNFSPRP | 0.078 |
| RRIRGRPPRLPRPRPRPNFWPRP | 0.544 |
| RRIRGRPPRLPRPRPRPNGPPRP | -0.0411 |
| RRIRGRPPRLPRPRPRPNHSPRP | 0.195 |
| RRIRGRPPRLPRPRPRPNIVPRP | 0.364 |
| RRIRGRPPRLPRPRPRPNKNPRP | 0.3 |
| RRIRGRPPRLPRPRPRPNLPPRP | 0.133 |
| RRIRGRPPRLPRPRPRPNNSPRP | -0.114 |
| RRIRGRPPRLPRPRPRPNNTPRP | -0.0658 |
| RRIRGRPPRLPRPRPRPNQHPRP | 0.189 |
| RRIRGRPPRLPRPRPRPNQNPRP | 0.4 |
| RRIRGRPPRLPRPRPRPNRFPRP | 0.282 |
| RRIRGRPPRLPRPRPRPNRGPRP | -0.0157 |
| RRIRGRPPRLPRPRPRPNRYPRP | 0.0443 |
| RRIRGRPPRLPRPRPRPNTEPRP | 0.299 |
| RRIRGRPPRLPRPRPRPNWHPRP | 0.27 |
| RRIRGRPPRLPRPRPRPNYMPRP | -0.0439 |
| RRIRGRPPRLPRPRPRPNYTPRP | -0.338 |
| RRIRGRPPRLPRPRPRPPAHPRP | 1.02 |

| Sequence | shrunken log2 fold change |
| --- | --- |
| RRIRGRPPRLPRPRPRPPARPRP | 1.2 |
| RRIRGRPPRLPRPRPRPPCEPRP | 0.433 |
| RRIRGRPPRLPRPRPRPPCMPRP | 0.293 |
| RRIRGRPPRLPRPRPRPPFGPRP | 0.738 |
| RRIRGRPPRLPRPRPRPPFQPRP | 0.358 |
| RRIRGRPPRLPRPRPRPPHLPRP | 0.558 |
| RRIRGRPPRLPRPRPRPPIIPRP | -0.0886 |
| RRIRGRPPRLPRPRPRPPKFPRP | 0.0991 |
| RRIRGRPPRLPRPRPRPPKPPRP | 0.919 |
| RRIRGRPPRLPRPRPRPPMHPRP | 0.95 |
| RRIRGRPPRLPRPRPRPPNKPRP | 0.528 |
| RRIRGRPPRLPRPRPRPPNRPRP | 0.427 |
| RRIRGRPPRLPRPRPRPPPNPRP | 1.27 |
| RRIRGRPPRLPRPRPRPPQEPRP | 0.352 |
| RRIRGRPPRLPRPRPRPPQMPRP | 1.77 |
| RRIRGRPPRLPRPRPRPPQNPRP | 1.01 |
| RRIRGRPPRLPRPRPRPPRDPRP | 1.12 |
| RRIRGRPPRLPRPRPRPPRQPRP | 1.27 |
| RRIRGRPPRLPRPRPRPPRRPRP | 1.28 |
| RRIRGRPPRLPRPRPRPPTNPRP | 0.866 |
| RRIRGRPPRLPRPRPRPPWDPRP | 0.832 |
| RRIRGRPPRLPRPRPRPPWFPRP | 0.772 |
| RRIRGRPPRLPRPRPRPPWMPRP | 0.373 |
| RRIRGRPPRLPRPRPRPPWSPRP | 0.76 |
| RRIRGRPPRLPRPRPRPPYRPRP | 0.388 |

| Sequence | shrunken log2 fold change |
| --- | --- |
| RRIRGRPPRLPRPRPRPQANPRP | 0.111 |
| RRIRGRPPRLPRPRPRPQCEPRP | 1.31 |
| RRIRGRPPRLPRPRPRPQCPPRP | 0.337 |
| RRIRGRPPRLPRPRPRPQDAPRP | 0.832 |
| RRIRGRPPRLPRPRPRPQEIPRP | 0.427 |
| RRIRGRPPRLPRPRPRPQEKPRP | 0.0562 |
| RRIRGRPPRLPRPRPRPQELPRP | 0.27 |
| RRIRGRPPRLPRPRPRPQFPPRP | -0.0214 |
| RRIRGRPPRLPRPRPRPQGCPRP | 0.394 |
| RRIRGRPPRLPRPRPRPQHPPRP | 0.426 |
| RRIRGRPPRLPRPRPRPQKAPRP | -0.027 |
| RRIRGRPPRLPRPRPRPQKIPRP | 0.274 |
| RRIRGRPPRLPRPRPRPQMCPRP | 0.522 |
| RRIRGRPPRLPRPRPRPQMTPRP | 2.33 |
| RRIRGRPPRLPRPRPRPQNDPRP | 0.128 |
| RRIRGRPPRLPRPRPRPQNKPRP | 0.0435 |
| RRIRGRPPRLPRPRPRPQNYPRP | -0.153 |
| RRIRGRPPRLPRPRPRPQPLPRP | 0.45 |
| RRIRGRPPRLPRPRPRPQQCPRP | 0.13 |
| RRIRGRPPRLPRPRPRPQSEPRP | 0.273 |
| RRIRGRPPRLPRPRPRPQTMPRP | 0.672 |
| RRIRGRPPRLPRPRPRPQTNPRP | 0.433 |
| RRIRGRPPRLPRPRPRPQTQPRP | 2.07 |
| RRIRGRPPRLPRPRPRPQTSPRP | 0.407 |
| RRIRGRPPRLPRPRPRPRCMPRP | 0.364 |
